# Values of other authors, collected in article PMC10970614.
# pKd: −log10 of the molar value.
# Tests used:
# [1] = molecular target: glycophorin (Homo sapiens) (UniProt P02724)
# [2] = molecular target: integrin alpha L cytoplasmic domain (Homo sapiens) (UniProt P20701); assay: SPR
# [3] = molecular target: integrin alpha M cytoplasmic domain (Homo sapiens) (UniProt P11215); assay: SPR
# [4] = molecular target: integrin alpha X cytoplasmic domain (Homo sapiens) (UniProt P20702); assay: SPR
# [5] = molecular target: integrin beta 2 cytoplasmic domain (Homo sapiens) (UniProt P05107); assay: SPR
# [6] = molecular target: integrin beta 3 cytoplasmic domain (Homo sapiens) (UniProt P05106); assay: SPR
# Chain of integrin beta 3 cytoplasmic domain (Homo sapiens) (P05106 742-788): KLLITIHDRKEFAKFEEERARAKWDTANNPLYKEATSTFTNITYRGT
# Chain of LtxA (P16462 whole entry): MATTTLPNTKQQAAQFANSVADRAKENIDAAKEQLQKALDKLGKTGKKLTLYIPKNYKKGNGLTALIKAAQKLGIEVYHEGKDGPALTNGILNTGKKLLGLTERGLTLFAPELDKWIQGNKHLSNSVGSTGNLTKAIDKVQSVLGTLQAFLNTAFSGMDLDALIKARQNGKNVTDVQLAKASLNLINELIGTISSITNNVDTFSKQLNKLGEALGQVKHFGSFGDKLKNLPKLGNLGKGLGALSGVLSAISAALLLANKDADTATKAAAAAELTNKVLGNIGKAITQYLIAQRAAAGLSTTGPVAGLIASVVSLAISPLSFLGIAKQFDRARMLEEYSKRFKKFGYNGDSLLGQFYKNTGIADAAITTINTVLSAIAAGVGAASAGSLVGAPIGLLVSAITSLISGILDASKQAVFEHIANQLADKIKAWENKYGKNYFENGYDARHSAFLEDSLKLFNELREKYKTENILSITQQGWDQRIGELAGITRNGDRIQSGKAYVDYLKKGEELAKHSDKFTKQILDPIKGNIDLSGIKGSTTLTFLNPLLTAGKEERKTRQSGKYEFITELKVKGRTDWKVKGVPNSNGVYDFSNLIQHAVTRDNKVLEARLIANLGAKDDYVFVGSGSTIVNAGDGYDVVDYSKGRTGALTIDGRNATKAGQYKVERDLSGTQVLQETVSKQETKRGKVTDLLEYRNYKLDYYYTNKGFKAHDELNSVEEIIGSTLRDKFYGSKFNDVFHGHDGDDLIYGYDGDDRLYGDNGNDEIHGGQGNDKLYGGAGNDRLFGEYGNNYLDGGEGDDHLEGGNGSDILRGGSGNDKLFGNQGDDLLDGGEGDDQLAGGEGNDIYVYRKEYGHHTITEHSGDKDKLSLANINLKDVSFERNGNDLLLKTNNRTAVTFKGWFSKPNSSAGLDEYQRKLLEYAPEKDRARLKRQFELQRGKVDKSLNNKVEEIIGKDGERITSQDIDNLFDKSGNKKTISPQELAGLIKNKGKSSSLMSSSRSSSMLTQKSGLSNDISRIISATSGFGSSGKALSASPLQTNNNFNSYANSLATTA
# Chain of HlyA (P08715 whole entry): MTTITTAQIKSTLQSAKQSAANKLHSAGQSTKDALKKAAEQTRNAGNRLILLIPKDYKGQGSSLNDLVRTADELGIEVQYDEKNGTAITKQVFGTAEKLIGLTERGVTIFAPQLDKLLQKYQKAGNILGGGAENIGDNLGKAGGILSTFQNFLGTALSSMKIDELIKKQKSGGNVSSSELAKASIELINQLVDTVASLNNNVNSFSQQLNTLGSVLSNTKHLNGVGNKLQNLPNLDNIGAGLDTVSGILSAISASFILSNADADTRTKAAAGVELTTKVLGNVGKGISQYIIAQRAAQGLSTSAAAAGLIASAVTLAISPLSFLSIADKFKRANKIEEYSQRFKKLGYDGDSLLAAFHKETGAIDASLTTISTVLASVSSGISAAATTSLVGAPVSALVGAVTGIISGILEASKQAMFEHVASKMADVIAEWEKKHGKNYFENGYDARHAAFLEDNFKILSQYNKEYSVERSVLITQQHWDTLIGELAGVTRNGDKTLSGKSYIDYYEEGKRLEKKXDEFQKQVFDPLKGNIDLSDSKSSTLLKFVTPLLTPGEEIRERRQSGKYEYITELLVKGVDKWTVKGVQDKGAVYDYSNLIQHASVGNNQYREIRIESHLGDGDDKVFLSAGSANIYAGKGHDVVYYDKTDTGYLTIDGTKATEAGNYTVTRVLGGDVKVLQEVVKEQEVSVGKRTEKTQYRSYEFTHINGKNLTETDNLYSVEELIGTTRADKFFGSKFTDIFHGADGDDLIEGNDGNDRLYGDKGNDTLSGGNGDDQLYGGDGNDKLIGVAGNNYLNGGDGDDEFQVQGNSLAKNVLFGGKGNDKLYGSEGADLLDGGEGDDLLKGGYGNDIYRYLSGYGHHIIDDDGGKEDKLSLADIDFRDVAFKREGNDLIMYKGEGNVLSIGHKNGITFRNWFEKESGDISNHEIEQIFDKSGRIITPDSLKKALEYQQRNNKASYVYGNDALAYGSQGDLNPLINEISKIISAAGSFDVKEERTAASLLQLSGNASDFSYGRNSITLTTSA
# Chain of integrin alpha M cytoplasmic domain (Homo sapiens) (P11215 1129-1152): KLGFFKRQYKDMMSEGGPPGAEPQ
# Chain of integrin beta 2 cytoplasmic domain (Homo sapiens) (P05107 724-769): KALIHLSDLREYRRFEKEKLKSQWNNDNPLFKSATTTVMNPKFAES
# Chain of integrin alpha X cytoplasmic domain (Homo sapiens) (P20702 1129-1163): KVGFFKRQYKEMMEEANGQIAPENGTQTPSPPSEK
# Chain of integrin alpha L cytoplasmic domain (Homo sapiens) (P20701 1112-1170): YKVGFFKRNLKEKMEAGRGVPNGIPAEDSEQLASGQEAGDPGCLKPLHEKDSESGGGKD
Substance,pKd [1],pKd [2],pKd [3],pKd [4],pKd [5],pKd [6]
HlyA (from UniProt P08715),6.21,,,,,
LtxA (from UniProt P16462),,7.82,6.40,6.74,8.38,6.64
